Results as given in US20220280659A1, “Targeted Nanoparticles of Well-Defined and Reproducible Sizes” (STAMS DIAGNOSTICS GMBH, priority 2019, published 2022).

Assay: Zeta Potential (surface charge) by electrophoretic mobility / PCS, PSS NICOMP 380 DLS/ZLS
Assay type: physicochemical
Conditions: FIG. 5; pH 7
Experimental: The surface charge (also referred to as Zeta potential) of the nanoparticles was determined by measuring their electrophoretic mobility using a PSS NICOMP™ 380 DLS/ZLS. Measurements were made at particle concentrations of 6 to 15 mg/ml, temperatures between room temperature to 50° C., and applying an external voltage of 5 Volts.
The surface charge (also referred to as Zeta potential or ζ-potential) may be measured using Zeta Sizer as e.g. PSS NICOMP™ 380 DLS/ZLS. Zeta Charge, or Net Surface Charge of a molecule or a particle is measured by PCS in the presence of an applied electrical field.

Substance: human serum albumin [cleaned and stabilized albumin molecules]
- global surface charge, PCS based measurement of the Zeta Potential: about −5 mV
